# Where a chain is given by its changes, count along the chain named.
# T1: full length cyno SIRPα stably expressed on CHOK1 cells (cynomolgus monkey, UniProt A0A2K5VYQ9 31-507)
# T1 construct: whole, on cells; also called CHOK1-cyno SIRPα-2A2 cells; CHOK1-cyno SIRPα
# T1 sequence: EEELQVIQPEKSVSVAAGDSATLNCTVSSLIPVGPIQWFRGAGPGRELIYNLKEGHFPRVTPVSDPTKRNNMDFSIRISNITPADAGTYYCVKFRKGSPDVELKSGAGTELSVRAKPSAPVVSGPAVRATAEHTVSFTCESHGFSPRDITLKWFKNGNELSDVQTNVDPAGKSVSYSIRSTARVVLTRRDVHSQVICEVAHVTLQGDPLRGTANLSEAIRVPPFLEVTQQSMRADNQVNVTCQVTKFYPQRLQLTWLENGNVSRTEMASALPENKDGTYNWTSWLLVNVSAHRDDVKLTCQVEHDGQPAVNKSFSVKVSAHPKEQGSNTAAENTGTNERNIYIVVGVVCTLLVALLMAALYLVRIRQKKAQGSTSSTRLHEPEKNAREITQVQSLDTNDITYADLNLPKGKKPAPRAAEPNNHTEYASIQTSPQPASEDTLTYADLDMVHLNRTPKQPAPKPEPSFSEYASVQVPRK
# B1: reference antibody 29-AM4-5 (antibody, V domains shown)
# VH: EVQLVESGGGLVQPGGSLRLSCAASGFNISYYFIHWVRQAPGKGLEWVASVYSSFGYTYYADSVKGRFTISADTSKNTAYLQMNSLRAEDTAVYYCARFTFPGLFDGFFGAYLGSLDYWGQGTLVTVSS
# VL: DIQMTQSPSSLSASVGDRVTITCRASQSVSSAVAWYQQKPGKAPKLLIYSASSLYSGVPSRFSGSRSGTDFTLTISSLQPEDFATYYCQQAVNWVGALVTFGQGTKVEIK
# B2: Antibody 050 (hybridoma antibody) (antibody, V domains shown)
# VH: QIQLVQSGPELKKPGETVKISCKASGYTFTHYSMHWVKQAPGKGLKWMGWINTETAEPTYVDDFKGRFAFSLEASASTAFFQINNLKNEDTATYFCARGGLRQGDYWGQGTTLTVSS
# VL: QIVLTQSPPIMSASPGEKVTLTCSATSSVSASYLYWFQQKPGSSPKLWIYSTSNLASGVPARFSGSGSGTSYSLTISNMEPADAASYFCHQWSSYPYTFGGGTKLEIK
# notes: mouse hybridoma antibody
# B3: reference antibody KWAR23 (antibody, V domains shown)
# VH: EVQLQQSGAELVKPGASVKLSCTASGFNIKDYYIHWVQQRTEQGLEWIGRIDPEDGETKYAPKFQDKATITADTSSNTAYLHLSSLTSEDTAVYYCARWGAYWGQGTLVTVSS
# VL: B2 VL with P9A, T26S, A31S, F37Y, N78S, P81A, A82E, Y97R, G101A, I107L
# B4: chimeric antibody 035c (antibody, V domains shown)
# VH: QIQLVQSGPELRKPGETVKISCKASGYSFTNYAMNWVKQAPGKVLKWMGFINTYTGEPTYADDFKGRFAFSLETSASTAYLQINNLKNEDTATYFCTRTRGYYDFDGGAFDYWGQGTSLTVSS
# VL: DIVMTQSQKFMSTSIGDRVSVTCKASQNVGTHLAWYQQKPGQSPKALIFSASYRYIGVPDRFTGSGSGTDFTLTITNVQSEDLAEYFCQQYNTYPLTFGAGTKLELK
# B5: chimeric antibody 050c (antibody, V domains shown)
# VH: B2 VH
# VL: B2 VL
# B6: chimeric antibody 022c (antibody, V domains shown)
# VH: QIQLVQSGPELKKPGETVKISCKASGYTFTDYAMHWVKQAPGKGLKWMGWKNTETGESTYAEDFKGRFAFFLETSASTAYLQINNVKNEDTATYFCARGGYGSNYVMDYWGQGTSVIVSS
# VL: DIQMTQSSSSFSVSLGDRVTITCKASEDIYNRLAWYQQKPGNAPRLLISGATSLETGVPSRFSGSGSGKDYTLSITSLQTEDVATYYCQQYWNSPRTFGGGTKLEIK
# Target: T2, Fc tagged human SIRPγ ECD recombinant protein (human, UniProt Q9P1W8 29-360)
# T2 construct: range 1-360; cloned range includes the signal peptide; also called hSIRPγ; not shown: human IgG Fc region (hFc) of the pCPC vector
# Assay: ELISA
# Summary of the method: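 OD 450 nm readings gave EC₅₀ values after a TMB reaction of 15 min at room temperature, stopped with 1N HCl. Before that, antibodies were bound to antigen-coated wells for 1 h at 37° C. An HRP-labelled anti-mouse or anti-human IgG secondary was then applied for a further 1 h at 37° C.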
row,EC50,Binder
1,0.22 nM,B1
2,0.38 nM,B2
3,0.15 nM,B3

# Target: T3, Fc tagged human SIRPα v2 ECD recombinant protein (human)
# T3 construct: range 1-369; cloned range M1-R369 includes the signal peptide; also called hSIRPα V2
# Assay: ELISA
# Summary of the method: (§1)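 Read-out: OD 450 nm after TMB development (15 min, RT) and 1N HCl stop; EC₅₀ calculated. Antibodies bound to coated antigen 1 h at 37° C., detected via HRP anti-mouse/anti-human IgG secondary, 1 h at 37° C.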
row,EC50,Binder
1,0.08 nM,B1
2,0.08 nM,B4
3,0.1 nM,B5
4,0.09 nM,B3
5,0.11 nM,B6

# Target: T4, Fc tagged human SIRPβ ECD recombinant protein (human, UniProt O00241 30-371)
# T4 construct: range 1-371; cloned range includes the signal peptide; also called hSIRPβ; not shown: human IgG Fc region (hFc) of the pCPC vector
# Assay: ELISA
# Summary of the method: as §1
row,EC50,Binder
1,0.08 nM,B1
2,0.08 nM,B4
3,0.08 nM,B5
4,0.08 nM,B3
5,0.08 nM,B6

# Target: T2, Fc tagged human SIRPγ ECD recombinant …
# Assay: ELISA
# Remark: another data set of the same source
# Summary of the method: as §1
row,EC50,Binder
1,0.11 nM,B1
2,6.11 nM,B4
3,0.27 nM,B5
4,0.05 nM,B3
5,18.7 nM,B6

# Target: T2, Fc tagged human SIRPγ ECD recombinant …
# Assay: ELISA
# Remark: another data set of the same source
# Summary of the method: as §1
row,EC50,Binder
1,0.11 nM,B1
2,6.11 nM,B4
3,0.27 nM,B5
4,0.05 nM,B3
5,18.7 nM,B6

# Target: T1, full length cyno SIRPα stably expressed …
# Assay: FACS on CHOK1 cells
# Summary of the method: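 Geometric median fluorescence gave EC50 values. CHOK1 lines stably carrying full-length SIRPα (2×10⁵ cells) were incubated with antibody for 1 h at 4 °C, washed, and stained with labelled anti-mouse or anti-human IgG for 1 h at 4 °C.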
row,MFI at 10 nM,Binder
1,27600 MFI,B1
2,24600 MFI,B4
3,20500 MFI,B5
4,23500 MFI,B6

# Target: T5, biotin labeled soluble human SIRPα v1 ECD recombinant protein (human, UniProt P78324 31-373, biotin labeled)
# T5 construct: extracellular domain
# Assay: competitive ELISA; competitor 001
# Method: (§2) Competitive ELISA assay was used for epitope binning of 9 functional antibodies. Briefly excessive competitor antibody and biotin labeled soluble human SIRPα v1 ECD recombinant protein were co-incubated with ELISA microplate coated antibody. After washing, HRP-SA was added and incubated at 37° C. for 1 hour. Then, […] of TMB solution (Biotechnology) was added. After incubation for 15 minutes at room temperature, the reaction was stopped by the addition of […] of 1N HCl. OD 450 nm was read. Competition ratio was calculated. The antibodies that can compete each other for binding to SIRPα have the similar binding epitope.
row,% Competition,Binder
1,97%,B1
2,2%,B2
3,85%,B3

# Target: T5, biotin labeled soluble human SIRPα v1 …
# Assay: competitive ELISA; competitor 002
# Method: as §2
row,% Competition,Binder
1,94%,B1
2,3%,B2
3,49%,B3

# Target: T5, biotin labeled soluble human SIRPα v1 …
# Assay: competitive ELISA; competitor 074
# Method: as §2
row,% Competition,Binder
1,4%,B1
2,2%,B2
3,1%,B3

# Target: T5, biotin labeled soluble human SIRPα v1 …
# Assay: competitive ELISA; competitor HEFLB
# Method: as §2
row,% Competition,Binder
1,25%,B1
2,-14%,B2
3,27%,B3

# Target: T5, biotin labeled soluble human SIRPα v1 …
# Assay: competitive ELISA; competitor KWAR23
# Method: as §2
row,% Competition,Binder
1,93%,B1
2,0%,B2
3,95%,B3

# Target: T5, biotin labeled soluble human SIRPα v1 …
# Assay: competitive ELISA; competitor 29-AM4-5
# Method: as §2
row,% Competition,Binder
1,91%,B1
2,-6%,B2
3,54%,B3

# Source: patent US20210347908A1 (ELPISCIENCE SUZHOU BIOPHARMA, published 2021)
